Reference: the RNAGym collection of RNA variant scans (doi:10.7554/elife.80360)

B1: Hammerhead Ribozyme (parent)
chain: ACCGGAUGUGCUUUCCGGUCUGAUGAGUCCGUGAGGACGAAACAG

Variants of: B1
Test: self-cleavage, relative activity (ratio to wild type); higher = more cleavage; co-transcriptional

Variant	self-cleavage
ACCGGAUGUGCUUUCCGGACUGAUGAGUCCGCGAGGACGAAACAG	0.377
ACCGGAUGUGCUUUCCGGACUGAUGAGUCCGAGAGGACGAAACAG	0.321
ACCGGAUGUGCUUUCCGGACUGAUGAGUCCGGGAGGACGAAACAG	0.33
ACCGGAUGUGCUUUCCGGCCUGAUGAGUCCGUGAGGACGUAACAG	0.272
ACCGGAUGUGCUUUCCGGCCUGAUGAGUCCGUGAGGACGGAACAG	0.332
ACCGGAUGUGCUUUCCGGCCUGAUGAGUCCGUGAGGACGCAACAG	0.305
ACCGGAUGUGCUUUCCGGCCUGAUGGGUCCGUGAGGACGAAACAG	0.242
ACCGGAUGUGCUUUCCGGCCUGAUGCGUCCGUGAGGACGAAACAG	0.367
ACCGGAUGUGCUUUCCGGCCUGAUGUGUCCGUGAGGACGAAACAG	0.492
ACCGGAUGUGCUUUCCGGACUGAUGAGCCCGUGAGGACGAAACAG	0.313
ACCGGAUGUGCUUUCCGGACUGAUGAGACCGUGAGGACGAAACAG	0.368
ACCGGAUGUGCUUUCCGGACUGAUGAGGCCGUGAGGACGAAACAG	0.374
ACCGGAUGUGCUUUCCGGACUGAUGAAUCCGUGAGGACGAAACAG	0.34
ACCGGAUGUGCUUUCCGGACUGAUGACUCCGUGAGGACGAAACAG	0.401
ACCGGAUGUGCUUUCCGGACUGAUGAUUCCGUGAGGACGAAACAG	0.26
ACCGGAUGUGCUUUCCGGCCUGAUGAGUCCGUGAGGGCGAAACAG	0.41
ACCGGAUGUGCUUUCCGGCCUGAUGAGUCCGUGAGGUCGAAACAG	0.437
ACCGGAUGUGCUUUCCGGCCUGAUGAGUCCGUGAGGCCGAAACAG	0.668
ACCGGAUGUGCUUUCCGGCCUGAUGAGUCCGUGAGGACGAAUCAG	0.212
ACCGGAUGUGCUUUCCGGCCUGAUGAGUCCGUGAGGACGAACCAG	0.237
ACCGGAUGUGCUUUCCGGCCUGAUGAGUCCGUGAGGACGAAGCAG	0.279
ACCGGAUGUGCUUUCCGGACUGAUGAGUCCGUCAGGACGAAACAG	0.291
ACCGGAUGUGCUUUCCGGACUGAUGAGUCCGUAAGGACGAAACAG	0.356

Variant	self-cleavage
ACCGGAUGUGCUUUCCGGACUGAUGAGUCCGUUAGGACGAAACAG	0.398
ACCGGAUGUGCUUUCCGGACUAAUGAGUCCGUGAGGACGAAACAG	0.346
ACCGGAUGUGCUUUCCGGACUUAUGAGUCCGUGAGGACGAAACAG	0.3
ACCGGAUGUGCUUUCCGGACUCAUGAGUCCGUGAGGACGAAACAG	0.356
ACCGGAUGUGCUUUCCGGACUGAUGAGUCCGUGAGCACGAAACAG	0.367
ACCGGAUGUGCUUUCCGGACUGAUGAGUCCGUGAGAACGAAACAG	0.369
ACCGGAUGUGCUUUCCGGACUGAUGAGUCCGUGAGUACGAAACAG	0.302
ACCGGAUGUGCUUUCCGGACUGAAGAGUCCGUGAGGACGAAACAG	0.465
ACCGGAUGUGCUUUCCGGACUGAGGAGUCCGUGAGGACGAAACAG	0.327
ACCGGAUGUGCUUUCCGGACUGACGAGUCCGUGAGGACGAAACAG	0.362
ACCGGAUGUGCUUUCCGGACUGAUGAGUCCGUGAGGACUAAACAG	0.29
ACCGGAUGUGCUUUCCGGACUGAUGAGUCCGUGAGGACAAAACAG	0.297
ACCGGAUGUGCUUUCCGGACUGAUGAGUCCGUGAGGACCAAACAG	0.329
ACCGGAUGUGCUUUCCGGACUGAUGAGUCCGUGGGGACGAAACAG	0.36
ACCGGAUGUGCUUUCCGGACUGAUGAGUCCGUGCGGACGAAACAG	0.32
ACCGGAUGUGCUUUCCGGACUGAUGAGUCCGUGUGGACGAAACAG	0.388
ACCGGAUGUGCUUUCCGGACUGAUGAGUCCGUGAGGACGAAACAC	0.405
ACCGGAUGUGCUUUCCGGACUGAUGAGUCCGUGAGGACGAAACAA	0.354
ACCGGAUGUGCUUUCCGGACUGAUGAGUCCGUGAGGACGAAACAU	0.41
ACCGGAUGUGCUUUCCGGCCUGAUGAGUUCGUGAGGACGAAACAG	0.491
ACCGGAUGUGCUUUCCGGCCUGAUGAGUACGUGAGGACGAAACAG	0.374
ACCGGAUGUGCUUUCCGGCCUGAUGAGUGCGUGAGGACGAAACAG	0.434
ACCGGAUGUGCUUUCCGGACUGAUGAGUCCGUGAGGACGGAACAG	0.307

Variant	self-cleavage
ACCGGAUGUGCUUUCCGGACUGAUGAGUCCGUGAGGACGCAACAG	0.339
ACCGGAUGUGCUUUCCGGACUGAUGAGUCCGUGAGGACGUAACAG	0.35
ACCGGAUGUGCUUUCCGGCUUGAUGAGUCCGUGAGGACGAAACAG	0.321
ACCGGAUGUGCUUUCCGGCAUGAUGAGUCCGUGAGGACGAAACAG	0.329
ACCGGAUGUGCUUUCCGGCGUGAUGAGUCCGUGAGGACGAAACAG	0.289
ACCGGAUGUGCUUUCCGGACUGAUUAGUCCGUGAGGACGAAACAG	0.35
ACCGGAUGUGCUUUCCGGACUGAUCAGUCCGUGAGGACGAAACAG	0.296
ACCGGAUGUGCUUUCCGGACUGAUAAGUCCGUGAGGACGAAACAG	0.347
ACCGGAUGUGCUUUCCGGACUGAUGAGUCCGUGAGGACGAAAUAG	0.396
ACCGGAUGUGCUUUCCGGACUGAUGAGUCCGUGAGGACGAAAAAG	0.279
ACCGGAUGUGCUUUCCGGACUGAUGAGUCCGUGAGGACGAAAGAG	0.346
ACCGGAUGUGCUUUCCGGACUGCUGAGUCCGUGAGGACGAAACAG	0.346
ACCGGAUGUGCUUUCCGGACUGUUGAGUCCGUGAGGACGAAACAG	0.386
ACCGGAUGUGCUUUCCGGACUGGUGAGUCCGUGAGGACGAAACAG	0.426
ACCGGAUGUGCUUUCCGGACGGAUGAGUCCGUGAGGACGAAACAG	0.314
ACCGGAUGUGCUUUCCGGACCGAUGAGUCCGUGAGGACGAAACAG	0.248
ACCGGAUGUGCUUUCCGGACAGAUGAGUCCGUGAGGACGAAACAG	0.292
ACCGGAUGUGCUUUCCGGCCUGGUGAGUCCGUGAGGACGAAACAG	0.369
ACCGGAUGUGCUUUCCGGCCUGUUGAGUCCGUGAGGACGAAACAG	0.372
ACCGGAUGUGCUUUCCGGCCUGCUGAGUCCGUGAGGACGAAACAG	0.299
ACCGGAUGUGCUUUCCGGACUGAUGAGUCCGUGAGGAUGAAACAG	0.358
ACCGGAUGUGCUUUCCGGACUGAUGAGUCCGUGAGGAGGAAACAG	0.365
ACCGGAUGUGCUUUCCGGACUGAUGAGUCCGUGAGGAAGAAACAG	0.313

Variant	self-cleavage
ACCGGAUGUGCUUUCCGGACUGAUGAGUCCGUGAGGUCGAAACAG	0.281
ACCGGAUGUGCUUUCCGGACUGAUGAGUCCGUGAGGGCGAAACAG	0.326
ACCGGAUGUGCUUUCCGGACUGAUGAGUCCGUGAGGCCGAAACAG	0.43
ACCGGAUGUGCUUUCCGGACUGAUGAGUCCUUGAGGACGAAACAG	0.402
ACCGGAUGUGCUUUCCGGACUGAUGAGUCCAUGAGGACGAAACAG	0.41
ACCGGAUGUGCUUUCCGGACUGAUGAGUCCCUGAGGACGAAACAG	0.384
ACCGGAUGUGCUUUCCGGCCUGAUGAGUCAGUGAGGACGAAACAG	0.416
ACCGGAUGUGCUUUCCGGCCUGAUGAGUCUGUGAGGACGAAACAG	0.878
ACCGGAUGUGCUUUCCGGCCUGAUGAGUCGGUGAGGACGAAACAG	0.459
ACCGGAUGUGCUUUCCGGCCUGAUGAGUCCGUGAGGAGGAAACAG	0.407
ACCGGAUGUGCUUUCCGGCCUGAUGAGUCCGUGAGGAAGAAACAG	0.414
ACCGGAUGUGCUUUCCGGACUGAUGAGUCCGUGAGGACGAUACAG	0.308
ACCGGAUGUGCUUUCCGGACUGAUGAGUCCGUGAGGACGACACAG	0.391
ACCGGAUGUGCUUUCCGGACUGAUGAGUCCGUGAGGACGAGACAG	0.312
ACCGGAUGUGCUUUCCGGACUGAUGAGUCCGUGAGGACGAACCAG	0.369
ACCGGAUGUGCUUUCCGGACUGAUGAGUCCGUGAGGACGAAUCAG	0.378
ACCGGAUGUGCUUUCCGGACUGAUGAGUCCGUGAGGACGAAGCAG	0.34
ACCGGAUGUGCUUUCCGGACUGAUGAGUCCGUGAUGACGAAACAG	0.373
ACCGGAUGUGCUUUCCGGACUGAUGAGUCCGUGACGACGAAACAG	0.422
ACCGGAUGUGCUUUCCGGACUGAUGAGUCCGUGAAGACGAAACAG	0.317
ACCGGAUGUGCUUUCCGGACUGAUGAGUGCGUGAGGACGAAACAG	0.295
ACCGGAUGUGCUUUCCGGACUGAUGAGUUCGUGAGGACGAAACAG	0.376
ACCGGAUGUGCUUUCCGGACUGAUGAGUACGUGAGGACGAAACAG	0.332

Variant	self-cleavage
ACCGGAUGUGCUUUCCGGCCUGAUGAGUCCGUGAGGACGAGACAG	0.228
ACCGGAUGUGCUUUCCGGCCUGAUGAGUCCGUGAGGACGAUACAG	0.271
ACCGGAUGUGCUUUCCGGCCUGAUGAGUCCGUGAGGACGACACAG	0.429
ACCGGAUGUGCUUUCCGGACUGAUGGGUCCGUGAGGACGAAACAG	0.313
ACCGGAUGUGCUUUCCGGACUGAUGCGUCCGUGAGGACGAAACAG	0.364
ACCGGAUGUGCUUUCCGGACUGAUGUGUCCGUGAGGACGAAACAG	0.255
ACCGGAUGUGCUUUCCGGAAUGAUGAGUCCGUGAGGACGAAACAG	0.287
ACCGGAUGUGCUUUCCGGAGUGAUGAGUCCGUGAGGACGAAACAG	0.31
ACCGGAUGUGCUUUCCGGAUUGAUGAGUCCGUGAGGACGAAACAG	0.303
ACCGGAUGUGCUUUCCGGCCUGAUGAGUCCGUGCGGACGAAACAG	0.411
ACCGGAUGUGCUUUCCGGCCUGAUGAGUCCGUGUGGACGAAACAG	0.339
ACCGGAUGUGCUUUCCGGCCUGAUGAGUCCGUGGGGACGAAACAG	0.478
ACCGGAUGUGCUUUCCGGACUGAUGAGUCCGUGAGGACGAAACCG	0.368
ACCGGAUGUGCUUUCCGGACUGAUGAGUCCGUGAGGACGAAACUG	0.262
ACCGGAUGUGCUUUCCGGACUGAUGAGUCCGUGAGGACGAAACGG	0.512
ACCGGAUGUGCUUUCCGGCCUGAUGAGUCCGUGAGGACGAAACGG	0.751
ACCGGAUGUGCUUUCCGGCCUGAUGAGUCCGUGAGGACGAAACCG	0.325
ACCGGAUGUGCUUUCCGGCCUGAUGAGUCCGUGAGGACGAAACUG	0.258
ACCGGAUGUGCUUUCCGGCCUGAUGAGUCCGUGAGGACGAAACAG	0.737
ACCGGAUGUGCUUUCCGGACUGAUGAGUCGGUGAGGACGAAACAG	0.28
ACCGGAUGUGCUUUCCGGACUGAUGAGUCAGUGAGGACGAAACAG	0.294
ACCGGAUGUGCUUUCCGGACUGAUGAGUCUGUGAGGACGAAACAG	0.369
